# Measured values as given in US20170037110A1 (IMMATICS BIOTECHNOLOGIES, published 2017).
# Biological target: T1, HLA-A*02:01 (human)
# T1 construct: monomers captured on streptavidin plates; also called MHC class I
# Assay: UV peptide exchange ELISA
# Outline: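 Read-out is an ELISA on the UV-exchange reaction: monomers, diluted 100-fold, are captured on streptavidin and the β2m light chain is detected with 2 μg/ml HRP antibody and TMB at 450 nm.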
row,Binder,peptide exchange yield
1,ALSEEGLLVYL,50 to 75%
2,ALYTGFSILV,20 to 50%
3,LLIGTDVSL,50 to 75%
4,GLDAATATV,20 to 50%
5,TLLAFIMEL,50 to 75%
6,VLASYNLTV,50 to 75%
7,FLPPEHTIVYI,50 to 75%
8,SIFSAFLSV,50 to 75%
9,GLLPGDRLVSV,50 to 75%
10,ELAERVPAI,20 to 50%
11,YVLEFLEEI,20 to 50%
12,LLWGDLIWL,50 to 75%
13,LLVSNLDFGV,50 to 75%
14,SLQEQLHSV,50 to 75%
15,LLFGGTKTV,20 to 50%
16,KITDTLIHL,50 to 75%
17,ALQDFLLSV,50 to 75%
18,RVLEVGALQAV,20 to 50%
19,LLLDEEGTFSL,20 to 50%
20,YLVAKLVEV,20 to 50%
21,LVYPLELYPA,50 to 75%
22,ALGNTVPAV,50 to 75%
23,NLFQSVREV,20 to 50%
24,SLLFSLFEA,20 to 50%
25,YLVYILNEL,20 to 50%
26,ALFTFSPLTV,50 to 75%
27,LLPPLESLATV,20 to 50%

row,Binder,peptide exchange yield
1,QLLDVVLTI,20 to 50%
2,ALWGGTQPLL,20 to 50%
3,VLPDPEVLEAV,50 to 75%
4,FMVDNEAIYDI,≥ 75%
5,ILRESTEEL,50 to 75%
6,LLADVVPTT,50 to 75%
7,ALYIGDGYVIHLA,50 to 75%
8,ILLSQTTGV,50 to 75%
9,QLLHVGVTV,50 to 75%
10,YLFPGIPEL,50 to 75%
11,FLNEFFLNV,50 to 75%
12,NLINEINGV,50 to 75%
13,VLLEIEDLQV,≥ 75%
14,VLDRESPNV,50 to 75%
15,RMIEYFIDV,50 to 75%
16,FMEGAIIYV,50 to 75%
17,VLADIELAQA,50 to 75%
18,VMITKLVEV,50 to 75%
19,YLLETSGNL,50 to 75%
20,ALLGQTFSL,50 to 75%
21,FLVEDLVDSL,50 to 75%
22,ALLQEGEVYSA,50 to 75%
23,AILPQLFMV,≥ 75%
24,MTLGQIYYL,50 to 75%
25,SIANFSEFYV,≥ 75%
26,VLDELDMEL,20 to 50%
27,ALVNVQIPL,50 to 75%
